The labels stand for the following.
B1: GALNT9 (parent)
chain: FTQSGPIVSRATGRCLEVEMSKDA
B2: RPAIN (parent)
chain: ISEYEKSLQFDEKCLSIMLAEWEA
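Note: lentivirally expressed fusions sorted by FACS into six bins by GFP to DsRed ratio, PSI derived from sequencing read proportions per bin multiplied by bin number.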

Variants of B1 are the subject of one data set. The data set can be described thus: protein stability index of a GFP-peptide fusion (GPS, HEK-293T) (PSI 1-6); higher = more stable. The note with it: c terminus: a fixed tail appended.
In the case of FTQSGPIVSRATGRCLEVEMSKSA, the protein stability index stood at 2.67. On the same count and under the same terms, the result for FTQSGPIVSRATGRCLEVEMSKTA reads 1.84. Still for that read-out and setting: the result for FTQSGPIVSRATGRCLEVEMSKQA reads 1.95; that for FTQSGPIVSRATGRCLEVEMSKVA, 2.02. Same read-out and setting: the result for FTQSGPIVSRATGRCLEVEMSKYA reads 2.52.

As to FTQSGPIVSRATGRCLEVEMSKDH, the protein stability index was 2.43. On the same count and under the same terms, the result for FTQSGPIVSRATGRCLEVEMSKDP reads 3.19; that for FTQSGPIVSRATGRCLEVEMSKDC, 2.34.

In the case of FTQSGPIVSRATGRCLEVEMSKDF, the protein stability index worked out at 1.34. Same read-out and setting: as for FTQSGPIVSRATGRCLEVEMSKDN, the figure is 2.78; as for FTQSGPIVSRATGRCLEVEMSKDD, 2.51; as for FTQSGPIVSRATGRCLEVEMSKDT, 2.3. Same read-out and setting: as for FTQSGPIVSRATGRCLEVEMSKDE, the figure is 2.64; as for FTQSGPIVSRATGRCLEVEMSKDV, 1.68. The same measure, in the same setting: as for FTQSGPIVSRATGRCLEVEMSKDI, the figure is 1.89; as for FTQSGPIVSRATGRCLEVEMSKDL, 2.35; as for FTQSGPIVSRATGRCLEVEMSKDM, 1.51.

FTQSGPIVSRATGRCLEVEMSKDR: the protein stability index is 2.2.

FTQSGPIVSRATGRCLEVEMSKDY: the protein stability index came out at 1.75.

In another data set the parent is B2. The data set is described as above. The settings on record: c terminus: a fixed tail appended.
For the variant ISEYMKSLQFDEKCLSIMLAEWEA, the protein stability index turned out to be 2.08. Same read-out and setting: as for ISEYDKSLQFDEKCLSIMLAEWEA, the figure is 1.55; as for ISEYLKSLQFDEKCLSIMLAEWEA, 2.02; as for ISEYCKSLQFDEKCLSIMLAEWEA, 2.24.

Consider ISEYKKSLQFDEKCLSIMLAEWEA, for which the protein stability index came out at 2.81. The same measure, in the same setting: as for ISEYIKSLQFDEKCLSIMLAEWEA, the figure is 1.75; as for IMEYEKSLQFDEKCLSIMLAEWEA, 2.15. Still for that read-out and setting: as for IFEYEKSLQFDEKCLSIMLAEWEA, the figure is 1.7; as for ILEYEKSLQFDEKCLSIMLAEWEA, 2.1; as for IDEYEKSLQFDEKCLSIMLAEWEA, 1.97. As for IGEYEKSLQFDEKCLSIMLAEWEA, the protein stability index amounted to 1.72. Same read-out and setting: as for IHEYEKSLQFDEKCLSIMLAEWEA, the figure is 1.5. On the same count and under the same terms, the result for IPEYEKSLQFDEKCLSIMLAEWEA reads 2.04. The same measure, in the same setting: as for INEYEKSLQFDEKCLSIMLAEWEA, the figure is 2.18; as for IYEYEKSLQFDEKCLSIMLAEWEA, 2.54. On to IWEYEKSLQFDEKCLSIMLAEWEA, for which the protein stability index worked out at 2.59. Still for that read-out and setting: as for IQEYEKSLQFDEKCLSIMLAEWEA, the figure is 1.81; as for IEEYEKSLQFDEKCLSIMLAEWEA, 1.16. Still for that read-out and setting: the result for ITEYEKSLQFDEKCLSIMLAEWEA reads 1.91; that for IIEYEKSLQFDEKCLSIMLAEWEA, 1.79.

As to ICEYEKSLQFDEKCLSIMLAEWEA, the protein stability index turned out to be 1.41. The same measure, in the same setting: the result for IAEYEKSLQFDEKCLSIMLAEWEA reads 2.2; that for ISEWEKSLQFDEKCLSIMLAEWEA, 1.92.

As to ISEFEKSLQFDEKCLSIMLAEWEA, the protein stability index worked out at 1.86. On the same count and under the same terms, the result for ISELEKSLQFDEKCLSIMLAEWEA reads 2.33; that for ISEEEKSLQFDEKCLSIMLAEWEA, 2.13. Take ISEIEKSLQFDEKCLSIMLAEWEA: the protein stability index stood at 2.15. On the same count and under the same terms, as for ISECEKSLQFDEKCLSIMLAEWEA, the figure is 1.75; as for ISENEKSLQFDEKCLSIMLAEWEA, 2.15; as for ISEQEKSLQFDEKCLSIMLAEWEA, 1.8. The same measure, in the same setting: the result for ISEDEKSLQFDEKCLSIMLAEWEA reads 2.12; that for ISEAEKSLQFDEKCLSIMLAEWEA, 2.48; that for ISESEKSLQFDEKCLSIMLAEWEA, 1.77.

For the variant ISEHEKSLQFDEKCLSIMLAEWEA, the protein stability index amounted to 2.06. Still for that read-out and setting: as for ISETEKSLQFDEKCLSIMLAEWEA, the figure is 2.5; as for ISEMEKSLQFDEKCLSIMLAEWEA, 2.15. The same measure, in the same setting: the result for ISEKEKSLQFDEKCLSIMLAEWEA reads 2.1; that for ISEPEKSLQFDEKCLSIMLAEWEA, 1.41.

Take ISEGEKSLQFDEKCLSIMLAEWEA: the protein stability index turned out to be 1.83.

In the case of GSEYEKSLQFDEKCLSIMLAEWEA, the protein stability index stood at 1.86. On the same count and under the same terms, the result for NSEYEKSLQFDEKCLSIMLAEWEA reads 1.69; that for PSEYEKSLQFDEKCLSIMLAEWEA, 2.04. Same read-out and setting: the result for ESEYEKSLQFDEKCLSIMLAEWEA reads 2.04; that for YSEYEKSLQFDEKCLSIMLAEWEA, 1.48; that for TSEYEKSLQFDEKCLSIMLAEWEA, 3.12.

Regarding KSEYEKSLQFDEKCLSIMLAEWEA, the protein stability index turned out to be 2.56. On the same count and under the same terms, the result for QSEYEKSLQFDEKCLSIMLAEWEA reads 2.64; that for DSEYEKSLQFDEKCLSIMLAEWEA, 2.6. For SSEYEKSLQFDEKCLSIMLAEWEA, the protein stability index stood at 1.8. With VSEYEKSLQFDEKCLSIMLAEWEA, the protein stability index was 2.15.

As to WSEYEKSLQFDEKCLSIMLAEWEA, the protein stability index was found to be 1.26. On the same count and under the same terms, the result for MSEYEKSLQFDEKCLSIMLAEWEA reads 2.42; that for HSEYEKSLQFDEKCLSIMLAEWEA, 2.15. The same measure, in the same setting: as for RSEYEKSLQFDEKCLSIMLAEWEA, the figure is 2.41.

Take LSEYEKSLQFDEKCLSIMLAEWEA: the protein stability index was 1.64. The same measure, in the same setting: as for ASEYEKSLQFDEKCLSIMLAEWEA, the figure is 2.29; as for FSEYEKSLQFDEKCLSIMLAEWEA, 1.34. On the same count and under the same terms, as for ISAYEKSLQFDEKCLSIMLAEWEA, the figure is 2.31. For the variant ISSYEKSLQFDEKCLSIMLAEWEA, the protein stability index turned out to be 1.68.

In the case of ISLYEKSLQFDEKCLSIMLAEWEA, the protein stability index is 1.54. The same measure, in the same setting: the result for ISYYEKSLQFDEKCLSIMLAEWEA reads 3.23; that for ISNYEKSLQFDEKCLSIMLAEWEA, 3.69; that for ISKYEKSLQFDEKCLSIMLAEWEA, 2.4. Consider ISMYEKSLQFDEKCLSIMLAEWEA, for which the protein stability index came to 1.82. On the same count and under the same terms, the result for ISIYEKSLQFDEKCLSIMLAEWEA reads 1.74. ISCYEKSLQFDEKCLSIMLAEWEA: the protein stability index was 1.44. Still for that read-out and setting: as for ISRYEKSLQFDEKCLSIMLAEWEA, the figure is 2.4; as for ISWYEKSLQFDEKCLSIMLAEWEA, 3.76; as for ISHYEKSLQFDEKCLSIMLAEWEA, 1.99. On the same count and under the same terms, as for ISVYEKSLQFDEKCLSIMLAEWEA, the figure is 2.93. ISTYEKSLQFDEKCLSIMLAEWEA: the protein stability index amounted to 2.91.

With ISDYEKSLQFDEKCLSIMLAEWEA, the protein stability index came to 1.81. On the same count and under the same terms, as for ISQYEKSLQFDEKCLSIMLAEWEA, the figure is 2.05.

Consider ISGYEKSLQFDEKCLSIMLAEWEA, for which the protein stability index was determined as 1.41. On the same count and under the same terms, the result for ISPYEKSLQFDEKCLSIMLAEWEA reads 1.42.

Values taken from the supplement of paper PMC10567573.
